Experiments:
[1] = molecular target: human endothelial cells (HUVECs); experiment: cell binding assay on human endothelial cells
[2] = molecular target: human endothelial cells (HUVECs); experiment: binding to HUVEC; the column prints only 'HUVEC (nM)'
[3] = molecular target: T1, VEGFR1 (on PAE-VEGFR1 cells) (UniProt P17948 27-1338, limits assumed); experiment: binding to PAE-VEGFR1 cells; the column prints only 'VEGFR1 (nM)', the text calls it an affinity
T1 construct: whole, on cells

[4] = molecular target: T2, VEGFR2 (on PAE-VEGFR2 cells) (UniProt P35968 20-1356, limits assumed); experiment: binding to PAE-VEGFR2 cells; the column prints only 'VEGFR2 (nM)'
T2 construct: whole, on cells
T2 sequence (P35968 20-1356 limits assumed): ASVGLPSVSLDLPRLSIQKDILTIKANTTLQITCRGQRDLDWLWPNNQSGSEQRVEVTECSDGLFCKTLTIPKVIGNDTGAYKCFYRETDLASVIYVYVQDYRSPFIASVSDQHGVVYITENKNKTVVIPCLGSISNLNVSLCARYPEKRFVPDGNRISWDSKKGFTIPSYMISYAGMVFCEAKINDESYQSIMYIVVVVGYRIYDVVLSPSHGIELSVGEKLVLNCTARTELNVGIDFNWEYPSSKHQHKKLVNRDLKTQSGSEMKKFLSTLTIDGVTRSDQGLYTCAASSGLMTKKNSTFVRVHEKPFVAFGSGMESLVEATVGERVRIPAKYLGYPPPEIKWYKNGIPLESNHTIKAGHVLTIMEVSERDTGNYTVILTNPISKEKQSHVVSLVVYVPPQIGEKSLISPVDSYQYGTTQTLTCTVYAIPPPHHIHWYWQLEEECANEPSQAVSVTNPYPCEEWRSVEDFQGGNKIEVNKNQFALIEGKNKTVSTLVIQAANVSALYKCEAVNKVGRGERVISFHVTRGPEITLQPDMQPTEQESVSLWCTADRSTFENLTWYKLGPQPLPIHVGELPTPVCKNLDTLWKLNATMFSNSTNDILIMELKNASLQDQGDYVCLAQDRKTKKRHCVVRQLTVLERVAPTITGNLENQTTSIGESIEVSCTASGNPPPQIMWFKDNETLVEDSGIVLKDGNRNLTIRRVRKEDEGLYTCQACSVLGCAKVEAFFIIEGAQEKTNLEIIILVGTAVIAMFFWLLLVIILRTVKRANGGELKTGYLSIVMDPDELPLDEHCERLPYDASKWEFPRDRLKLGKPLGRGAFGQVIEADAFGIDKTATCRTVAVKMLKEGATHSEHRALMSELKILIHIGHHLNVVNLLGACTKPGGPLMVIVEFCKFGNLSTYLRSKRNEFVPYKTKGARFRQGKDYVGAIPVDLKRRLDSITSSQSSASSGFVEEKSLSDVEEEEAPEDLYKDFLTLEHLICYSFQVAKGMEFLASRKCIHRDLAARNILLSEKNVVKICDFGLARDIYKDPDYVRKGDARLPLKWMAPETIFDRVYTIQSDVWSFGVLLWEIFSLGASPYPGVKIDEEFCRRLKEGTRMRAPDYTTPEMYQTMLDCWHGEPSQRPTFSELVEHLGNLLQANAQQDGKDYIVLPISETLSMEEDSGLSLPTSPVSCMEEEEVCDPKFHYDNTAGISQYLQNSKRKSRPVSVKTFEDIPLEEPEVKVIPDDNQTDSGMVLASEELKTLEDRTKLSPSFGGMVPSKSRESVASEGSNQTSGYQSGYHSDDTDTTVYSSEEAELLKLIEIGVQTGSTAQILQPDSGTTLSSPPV

T1 sequence (P17948 27-1338 limits assumed): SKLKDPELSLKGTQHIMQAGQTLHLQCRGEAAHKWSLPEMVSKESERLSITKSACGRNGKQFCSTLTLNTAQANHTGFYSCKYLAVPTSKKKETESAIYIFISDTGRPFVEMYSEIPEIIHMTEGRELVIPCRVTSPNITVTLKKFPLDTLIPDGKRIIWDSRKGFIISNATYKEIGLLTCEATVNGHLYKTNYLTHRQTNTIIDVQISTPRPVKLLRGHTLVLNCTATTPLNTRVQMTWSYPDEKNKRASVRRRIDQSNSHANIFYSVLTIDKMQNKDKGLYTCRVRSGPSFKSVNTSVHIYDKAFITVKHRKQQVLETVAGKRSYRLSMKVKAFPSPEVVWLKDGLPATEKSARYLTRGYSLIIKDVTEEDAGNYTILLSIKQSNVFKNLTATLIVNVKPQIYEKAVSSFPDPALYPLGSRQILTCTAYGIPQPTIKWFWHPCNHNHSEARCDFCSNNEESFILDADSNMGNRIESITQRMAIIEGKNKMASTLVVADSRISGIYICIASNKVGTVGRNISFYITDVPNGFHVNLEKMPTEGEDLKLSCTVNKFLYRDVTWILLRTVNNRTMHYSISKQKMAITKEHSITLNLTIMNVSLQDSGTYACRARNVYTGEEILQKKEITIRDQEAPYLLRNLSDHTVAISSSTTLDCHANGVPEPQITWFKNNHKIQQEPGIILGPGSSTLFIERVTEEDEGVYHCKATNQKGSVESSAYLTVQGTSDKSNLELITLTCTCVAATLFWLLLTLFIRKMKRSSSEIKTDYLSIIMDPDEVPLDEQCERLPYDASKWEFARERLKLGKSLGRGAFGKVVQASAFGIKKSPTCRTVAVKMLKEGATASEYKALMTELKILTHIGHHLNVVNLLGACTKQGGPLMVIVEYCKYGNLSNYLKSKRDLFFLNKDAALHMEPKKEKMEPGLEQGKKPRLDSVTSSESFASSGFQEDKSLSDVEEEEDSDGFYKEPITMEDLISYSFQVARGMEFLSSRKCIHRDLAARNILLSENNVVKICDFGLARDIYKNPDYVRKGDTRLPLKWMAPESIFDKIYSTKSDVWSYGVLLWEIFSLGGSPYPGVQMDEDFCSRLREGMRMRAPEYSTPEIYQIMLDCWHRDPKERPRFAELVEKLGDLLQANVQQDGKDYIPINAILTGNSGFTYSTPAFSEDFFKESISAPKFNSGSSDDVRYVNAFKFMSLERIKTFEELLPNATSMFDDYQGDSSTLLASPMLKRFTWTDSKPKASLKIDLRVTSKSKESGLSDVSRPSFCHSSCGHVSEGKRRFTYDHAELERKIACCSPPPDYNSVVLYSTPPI

| Kd [1] | fold improvement of KD against the construct with the original linker [1] | Kd [2] | Kd [3] | Kd [4] | Binder |
| --- | --- | --- | --- | --- | --- |
| 0.32 nM |  |  |  |  | scVEGF-mE7I (SEQ ID NO: 75), construct with the original linker (ligand) EVVKAMDVYQRSYCHPIETLVDILQEYPDEIGYIFKPSCVPLMRCGGCCNGAGLECVPTEESNITMQIMRIKPHRGQHIGEMSFLQHNKCECRPKKDGGGGSGGGGSGGGGSGGGGSEVVRFMDVYQRSYCHPIETLVDIFQEYPNEIEYAFKPSCVPLMRCGGCCNNEGLECVPTEESNITMQIMRPSVRRGDSPASHIGEMSFLQHNKCECRPKKD |
| 0.16 nM | 2 fold |  |  |  | scVEGF-mE7I construct containing the L3A linker (ligand) EVVKAMDVYQRSYCHPIETLVDILQEYPDEIGYIFKPSCVPLMRCGGCCNGAGLECVPTEESNITMQIMRIKPHRGQHIGEMSFLQHNKCECRPKKDGGGGSGGGGSGGGGSGGGGSEVVRFMDVYQRSYCHPIETLVDIFQEYPNEIEYAFKPSCVPLMRCGGCCNNEGLECVPTEESNITMQIMRPSVRRGDSPASHIGEMSFLQHNKCECRPKKD |
|  |  | 0.4 nM | 0.55 nM | 0.5 nM | scVEGFMUT-E (mE, SEQ ID NO.: 55) (ligand, Chain 1: F36L, E44G, D63G, Q87R; also called scVEGFmE) EVVKAMDVYQRSYCHPIETLVDILQEYPDEIGYIFKPSCVPLMRCGGCCNGAGLECVPTEESNITMQIMRIKPHRGQHIGEMSFLQHNKCECRPKKDGSTSGSGKSSEGKGEVVRFMDVYQRSYCHPIETLVDIFQEYPNEIEYAFKPSCVPLMRCGGCCNNEGLECVPTEESNITMQIMRAKPHQGQHIGEMSFLQHNKCECRPKKD |
